# B1: sp¦P49916¦DNLI3_HUMAN (protein, UniProt P49916 43-1009, looked up)
# DNA ligase 3: LLHGHPLFLRRKPVLSFQGSHLRSRATYLVFLPGLHVGLCSGPCEMAEQRFCVDYAKRGTAGCKKCKEKIVKGVCRIGKVVPNPFSESGGDMKEWYHIKCMFEKLERARATTKKIEDLTELEGWEELEDNEKEQITQHIADLSSKAAGTPKKKAVVQAKLTTTGQVTSPVKGASFVTSTNPRKFSGFSAKPNNSGEAPSSPTPKRSLSSSKCDPRHKDCLLREFRKLCAMVADNPSYNTKTQIIQDFLRKGSAGDGFHGDVYLTVKLLLPGVIKTVYNLNDKQIVKLFSRIFNCNPDDMARDLEQGDVSETIRVFFEQSKSFPPAAKSLLTIQEVDEFLLRLSKLTKEDEQQQALQDIASRCTANDLKCIIRLIKHDLKMNSGAKHVLDALDPNAYEAFKASRNLQDVVERVLHNAQEVEKEPGQRRALSVQASLMTPVQPMLAEACKSVEYAMKKCPNGMFSEIKYDGERVQVHKNGDHFSYFSRSLKPVLPHKVAHFKDYIPQAFPGGHSMILDSEVLLIDNKTGKPLPFGTLGVHKKAAFQDANVCLFVFDCIYFNDVSLMDRPLCERRKFLHDNMVEIPNRIMFSEMKRVTKALDLADMITRVIQEGLEGLVLKDVKGTYEPGKRHWLKVKKDYLNEGAMADTADLVVLGAFYGQGSKGGMMSIFLMGCYDPGSQKWCTVTKCAGGHDDATLARLQNELDMVKISKDPSKIPSWLKVNKIYYPDFIVPDPKKAAVWEITGAEFSKSEAHTADGISIRFPRCTRIRDDKDWKSATNLPQLKELYQLSKEKADFTVVAGDEGSSTTGGSSEENKGPSGSAVSRKAPSKPSASTKKAEGKLSNSNSKDGNMQTAKPSAMKVGEKLATKSSPVKVGEKRKAADETLCQTKVLLDIFTGVRLYLPPSTPDFSRLRRYFVAFDGDLVQEFDMTSATHVLGSRDKNPAAQQVSPEWIWACIRKRRLVAPC
# B2: sp¦O15173¦PGRC2_HUMAN (protein, UniProt O15173 1-223, looked up)
# Membrane-associated …: MAAGDGDVKLGTLGSGSESSNDGGSESPGDAGAAAEGGGWAAAALALLTGGGEMLLNVALVALVLLGAYRLWVRWGRRGLGAGAGAGEESPATSLPRMKKRDFSLEQLRQYDGSRNPRILLAVNGKVFDVTKGSKFYGPAGPYGIFAGRDASRGLATFCLDKDALRDEYDDLSDLNAVQMESVREWEMQFKEKYDYVGRLLKPGEEPSEYTDEEDTKDHNKQD
# B3: sp¦P48449¦LSS_HUMAN (protein, UniProt P48449 2-732, looked up)
# Lanosterol synthase: TEGTCLRRRGGPYKTEPATDLGRWRLNCERGRQTWTYLQDERAGREQTGLEAYALGLDTKNYFKDLPKAHTAFEGALNGMTFYVGLQAEDGHWTGDYGGPLFLLPGLLITCHVARIPLPAGYREEIVRYLRSVQLPDGGWGLHIEDKSTVFGTALNYVSLRILGVGPDDPDLVRARNILHKKGGAVAIPSWGKFWLAVLNVYSWEGLNTLFPEMWLFPDWAPAHPSTLWCHCRQVYLPMSYCYAVRLSAAEDPLVQSLRQELYVEDFASIDWLAQRNNVAPDELYTPHSWLLRVVYALLNLYEHHHSAHLRQRAVQKLYEHIVADDRFTKSISIGPISKTINMLVRWYVDGPASTAFQEHVSRIPDYLWMGLDGMKMQGTNGSQIWDTAFAIQALLEAGGHHRPEFSSCLQKAHEFLRLSQVPDNPPDYQKYYRQMRKGGFSFSTLDCGWIVSDCTAEALKAVLLLQEKCPHVTEHIPRERLCDAVAVLLNMRNPDGGFATYETKRGGHLLELLNPSEVFGDIMIDYTYVECTSAVMQALKYFHKRFPEHRAAEIRETLTQGLEFCRRQQRADGSWEGSWGVCFTYGTWFGLEAFACMGQTYRDGTACAEVSRACDFLLSRQMADGGWGEDFESCEERRYLQSAQSQIHNTCWAMMGLMAVRHPDIEAQERGVRCLLEKQLPNGDWPQENIAGVFNKSCAISYTSYRNIFPIWALGRFSQLYPERALAGHP
# B4: sp¦Q9NVH1¦DJC11_HUMAN (protein, UniProt Q9NVH1 2-559, looked up)
# DnaJ homolog subfamily C …: ATALSEEELDNEDYYSLLNVRREASSEELKAAYRRLCMLYHPDKHRDPELKSQAERLFNLVHQAYEVLSDPQTRAIYDIYGKRGLEMEGWEVVERRRTPAEIREEFERLQREREERRLQQRTNPKGTISVGVDATDLFDRYDEEYEDVSGSSFPQIEINKMHISQSIEAPLTATDTAILSGSLSTQNGNGGGSINFALRRVTSAKGWGELEFGAGDLQGPLFGLKLFRNLTPRCFVTTNCALQFSSRGIRPGLTTVLARNLDKNTVGYLQWRWGIQSAMNTSIVRDTKTSHFTVALQLGIPHSFALISYQHKFQDDDQTRVKGSLKAGFFGTVVEYGAERKISRHSVLGAAVSVGVPQGVSLKVKLNRASQTYFFPIHLTDQLLPSAMFYATVGPLVVYFAMHRLIIKPYLRAQKEKELEKQRESAATDVLQKKQEAESAVRLMQESVRRIIEAEESRMGLIIVNAWYGKFVNDKSRKSEKVKVIDVTVPLQCLVKDSKLILTEASKAGLPGFYDPCVGEEKNLKVLYQFRGVLHQVMVLDSEALRIPKQSHRIDTDG
# B5: sp¦Q9H3N1¦TMX1_HUMAN (protein, UniProt Q9H3N1 27-280, looked up)
# Thioredoxin-related …: RRSNVRVITDENWRELLEGDWMIEFYAPWCPACQNLQPEWESFAEWGEDLEVNIAKVDVTEQPGLSGRFIITALPTIYHCKDGEFRRYQGPRTKKDFINFISDKEWKSIEPVSSWFGPGSVLMSSMSALFQLSMWIRTCHNYFIEDLGLPVWGSYTVFALATLFSGLLLGLCMIFVADCLCPSKRRRPQPYPYPSKKLLSESAQPLKKVEEEQEADEEDVSEEEAESKEGTNKDFPQNAIRQRSLGPSLATDKS
# B6: sp¦O14776¦TCRG1_HUMAN (protein, UniProt O14776 1-1098, looked up)
# Transcription elongation …: MAERGGDGGESERFNPGELRMAQQQALRFRGPAPPPNAVMRGPPPLMRPPPPFGMMRGPPPPPRPPFGRPPFDPNMPPMPPPGGIPPPMGPPHLQRPPFMPPPMSSMPPPPGMMFPPGMPPVTAPGTPALPPTEEIWVENKTPDGKVYYYNARTRESAWTKPDGVKVIQQSELTPMLAAQAQVQAQAQAQAQAQAQAQAQAQAQAQAQAQAQAQAQAQAQAQAQAQAQAQAQAQAQAQAQAQVQAQVQAQVQAQAVGASTPTTSSPAPAVSTSTSSSTPSSTTSTTTTATSVAQTVSTPTTQDQTPSSAVSVATPTVSVSTPAPTATPVQTVPQPHPQTLPPAVPHSVPQPTTAIPAFPPVMVPPFRVPLPGMPIPLPGVAMMQIVSCPYVKTVATTKTGVLPGMAPPIVPMIHPQVAIAASPATLAGATAVSEWTEYKTADGKTYYYNNRTLESTWEKPQELKEKEKLEEKIKEPIKEPSEEPLPMETEEEDPKEEPIKEIKEEPKEEEMTEEEKAAQKAKPVATAPIPGTPWCVVWTGDERVFFYNPTTRLSMWDRPDDLIGRADVDKIIQEPPHKKGMEELKKLRHPTPTMLSIQKWQFSMSAIKEEQELMEEINEDEPVKAKKRKRDDNKDIDSEKEAAMEAEIKAARERAIVPLEARMKQFKDMLLERGVSAFSTWEKELHKIVFDPRYLLLNPKERKQVFDQYVKTRAEEERREKKNKIMQAKEDFKKMMEEAKFNPRATFSEFAAKHAKDSRFKAIEKMKDREALFNEFVAAARKKEKEDSKTRGEKIKSDFFELLSNHHLDSQSRWSKVKDKVESDPRYKAVDSSSMREDLFKQYIEKIAKNLDSEKEKELERQARIEASLREREREVQKARSEQTKEIDREREQHKREEAIQNFKALLSDMVRSSDVSWSDTRRTLRKDHRWESGSLLEREEKEKLFNEHIEALTKKKREHFRQLLDETSAITLTSTWKEVKKIIKEDPRCIKFSSSDRKKQREFEEYIRDKYITAKADFRTLLKETKFITYRSKKLIQESDQHLKDVEKILQNDKRYLVLDCVPEERRKLIVAYVDDLDRRGPPPPPTASEPTRRSTK
# B7: sp¦Q1KMD3¦HNRL2_HUMAN (protein, UniProt Q1KMD3 1-747, looked up)
# Heterogeneous nuclear …: MEVKRLKVTELRSELQRRGLDSRGLKVDLAQRLQEALDAEMLEDEAGGGGAGPGGACKAEPRPVAASGGGPGGDEEEDEEEEEEDEEALLEDEDEEPPPAQALGQAAQPPPEPPEAAAMEAAAEPDASEKPAEATAGSGGVNGGEEQGLGKREEDEPEERSGDETPGSEVPGDKAAEEQGDDQDSEKSKPAGSDGERRGVKRQRDEKDEHGRAYYEFREEAYHSRSKSPLPPEEEAKDEEEDQTLVNLDTYTSDLHFQVSKDRYGGQPLFSEKFPTLWSGARSTYGVTKGKVCFEAKVTQNLPMKEGCTEVSLLRVGWSVDFSRPQLGEDEFSYGFDGRGLKAENGQFEEFGQTFGENDVIGCFANFETEEVELSFSKNGEDLGVAFWISKDSLADRALLPHVLCKNCVVELNFGQKEEPFFPPPEEFVFIHAVPVEERVRTAVPPKTIEECEVILMVGLPGSGKTQWALKYAKENPEKRYNVLGAETVLNQMRMKGLEEPEMDPKSRDLLVQQASQCLSKLVQIASRTKRNFILDQCNVYNSGQRRKLLLFKTFSRKVVVVVPNEEDWKKRLELRKEVEGDDVPESIMLEMKANFSLPEKCDYMDEVTYGELEKEEAQPIVTKYKEEARKLLPPSEKRTNRRNNRNKRNRQNRSRGQGYVGGQRRGYDNRAYGQQYWGQPGNRGGYRNFYDRYRGDYDRFYGRDYEYNRYRDYYRQYNRDWQSYYYHHPQDRDRYYRNYYGYQGYR
# B8: sp¦P11177¦ODPB_HUMAN (protein, UniProt P11177 31-359, looked up)
# Pyruvate dehydrogenase E1 …: LQVTVRDAINQGMDEELERDEKVFLLGEEVAQYDGAYKVSRGLWKKYGDKRIIDTPISEMGFAGIAVGAAMAGLRPICEFMTFNFSMQAIDQVINSAAKTYYMSGGLQPVPIVFRGPNGASAGVAAQHSQCFAAWYGHCPGLKVVSPWNSEDAKGLIKSAIRDNNPVVVLENELMYGVPFEFPPEAQSKDFLIPIGKAKIERQGTHITVVSHSRPVGHCLEAAAVLSKEGVECEVINMRTIRPMDMETIEASVMKTNHLVTVEGGWPQFGVGAEICARIMEGPAFNFLDAPAVRVTGADVPMPYAKILEDNSIPQVKDIIFAIKKTLNI
# B9: sp¦Q15758¦AAAT_HUMAN (protein, UniProt Q15758 1-541, looked up)
# Neutral amino acid …: MVADPPRDSKGLAAAEPTANGGLALASIEDQGAAAGGYCGSRDQVRRCLRANLLVLLTVVAVVAGVALGLGVSGAGGALALGPERLSAFVFPGELLLRLLRMIILPLVVCSLIGGAASLDPGALGRLGAWALLFFLVTTLLASALGVGLALALQPGAASAAINASVGAAGSAENAPSKEVLDSFLDLARNIFPSNLVSAAFRSYSTTYEERNITGTRVKVPVGQEVEGMNILGLVVFAIVFGVALRKLGPEGELLIRFFNSFNEATMVLVSWIMWYAPVGIMFLVAGKIVEMEDVGLLFARLGKYILCCLLGHAIHGLLVLPLIYFLFTRKNPYRFLWGIVTPLATAFGTSSSSATLPLMMKCVEENNGVAKHISRFILPIGATVNMDGAALFQCVAAVFIAQLSQQSLDFVKIITILVTATASSVGAAGIPAGGVLTLAIILEAVNLPVDHISLILAVDWLVDRSCTVLNVEGDALGAGLLQNYVDRTESRSTEPELIQVKSELPLDPLPVPTEEGNPLLKHYRGPAGDATVASEKESVM
# Test system: human HL60 cells
# Experiment: SWATH-MS proteomics, differential protein representation, akirin2 KO vs WT HL60 cells
# Type: cell-based
# Conditions: SWATH-MS, akirin2 KO vs WT HL60 cells, under-represented in KO
# Summary of the method: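 Differential representation compares akirin2 KO with WT HL60 across three biological replicates, 5 µg digest each, acquired by data-independent SWATH on a 120-min gradient. Library built from combined IDA runs searched with Paragon; proteins accepted at 1% FDR, with total-area-sum normalization.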
Molecule,Fold Change,Log (Fold Change)
B1,0.7417,-0.1297
B2,0.7369,-0.1326
B3,0.7416,-0.1298
B4,0.7368,-0.1326
B5,0.7331,-0.1348
B6,0.7373,-0.1323
B7,0.7447,-0.128
B8,0.7344,-0.1341

# Same assay, conditions: akirin2 KO vs WT HL60 cells; sheet "Under-represented in KO"
Molecule,Fold Change,Log (Fold Change)
B9,0.3333,-0.4771

# — article PMC8298264, “Function of cofactor Akirin2 in the regulation of gene expression in model human neutrophil-like HL60 cells” (Bioscience Reports, 2021)
